Measured values as given in the DeepSol protein solubility set.

Experiment: soluble on expression in E. coli; label from the status in PepcDB or PDB records

Row | Sequence | soluble on expression in E. coli
1 | MKRKRIDIITLGCSKNLVDSEQLMRQLEEAGYSVTHDTENPEGEIAVINTCGFIGDAKEESINMILEFAERKEEGDLKKLFVMGCLSERYLQELAIEIPQVDKFYGKFNWKELLQDLGKTYHEELYIERTLTTPKHYAYLKISEGCDRKCSYCAIPIITGRHISKSMEEILDEVRYLVSQGVKEFQVIAQELTYYGVDLYKKQMLPELIERISEIPGVEWIRLHYAYPAHFPTDLFRVMRERDNVCKYMDIALQHISDNMLKLMRRQVSKEDTYKLIEQFRKEVPGIHLRTTLMVGHPGETEEDFEELKEFVRKARFDRMGAFAYSEEEGTYAAQQYEDSIPQEVKQARLDELMDIQQGISAELSAAKIGQQMKVIIDRIEGDYYIGRTEFDSPEVDPEVLISVSREELEVGQFYQVEVTDADDFDLYAKILNKYELEHHHHHH | soluble
2 | MKRNAWEVYGEVLKTARELGLEGEEQEVAKALLAWPKERFHALAARVGLKAKYLRHDLLPIAFLPEPLREALQGGLPLREAHRLHRLLKRGELSLQDLTGKDPKALMALPARPGEVDPRLPVWFFPPEPWEEALPMAVARALVQLYTREGELVLDPMAGRGTVVEAARALDRRAWGGDIAPRGPLVERADIRDLPRRFRKEAALVVLHPPTFSTWLREEGYREEAEERYGEYIRHISSFLDLCRPTLAPGGKLVLVARPRRTLTPKDLEAGHDFFLAPWERALAEADFRPLSYHLAVSQDGRQDWHLFVGEPRG | soluble
3 | MKRTTLVMLLLTLCGFSSASFALSESEAEDLADLTAVFVYLKNDCGYQELPNNEIKRAIVYFAQQNRWDLHNYDSFNMKALGEDSYRDLRGIALPTPVKCKSLARDSLSLLAYAN | not soluble
4 | MKRVDSVISLIYSLSKSEKKHFSLQVIKDKEEKDYLVIYDIIIKSKQPNGNTVKEEFYRRKPNGSFEVSIQYLYEKLTDTLLTLRKKKDIYYDLLNNLCKARMLYERSLFEECFEILSNTIEQAQFYENNEILTIALKLELEYLLRLNFPNMTEQELFHKHFIQNEALKKIRKITEQSSLHNLLKYRLSHIGSIRTVKQKQDMNDLMVNELYIAASSDSEGNFELTRNHKLFQANYLMGAGDYRAALNSYKELDSLFEQNQQFWSNPPIYYLSVLEGVLGSLRSVSNYDEIPYFLDKLRKLISDSTSLEFKVNATCLLFQYELFPYLDKGDFSKCTQLMADYQEILYDKEAWLGPIRKSELLLYTTLVHIGNQEYKTAKKYISNAIIDHNIKYLPLMRTIRLVRLIVFYEVQEHELIQYESRSITRSLSSPKEQTFKTERIILWFLNKRNIPILKKDREAFWEKLSPEIHELYNNKYESQLLRLFDFTAWMESKIRKEKLSEVLRARASAKEC | not soluble
5 | MKRVRKAIIPAAGLGTRFLPATKAMPKEMLPIVDKPTIQYIVEEAVKSGIEDIIIVTGKTKRSIEDHFDNAFELEQNLLEKKKYELLEKVQASSKMVDIHYIRQKEPKGLGHAVWCARKFIGDEPFAVLLGDDIVQAEKPCLRQLIEEYDKTLSSVIGVQTVPEDETHRYGIIDPLEQEGRRYQVRNFVEKPAAGTAPSNLAIMGRYVLTPEIFMFLEQQHVGAGGEIQLTDAIQSLNEIQRVFAYDFEGKRYDVGEKLGFVQTTIEMALQHPELRDDMVTMMKKILEEQTNQES | not soluble
6 | MKSIYYLSADDLFQMNTFLIQTYSPAEQIGIKDRNALEMASNQPAQFVFDVDLYPTIEEKAAILMINIATKHCFYNANKRTAVMATDLFLQLNGYDFQLDTQEGVDLLVFIATYRSDFDQLKNDVSKVIRAKLNHTSSHLEHHHHHH | soluble
7 | MKSKLICIIMVIAFQAHFTMTVKADSVGEEKLQNNTQAKKTPADLKALPDSCEAKDFYKNFKILDMTKDKLGVTHYTLALSSGGYLTDNDEIKVHVTPDNKITFINGDLQQGQLRITNQIKITEKNAIEKAFEAIGQSEAHVKSYVGNPVKEKEIILNSRTKRLVYNIKLIFAEPEVASWIVQVDVETGAILKKQNMLSEVERADTHKDFQALGKGANRLLQRPLHVMKINDLFYLVDRTHKGLIRTFDLKHNTDTSFGKVVSNKTNMFTDPEFSSAVDAHFYASEVYEYYKNVHQLESLDGKGGEIDSFVHYGLNCNNAFWDGQEILYGDGDKKNFKPFSCAKTIVGHELTHAVIQYSAGLEYEGQSGALNESFADVFGYFIAPNHWLIGEDVCVRGSRDGRIRSIKDPDKYNQAAHMKDYESLPLTEEGDWGGVHYNSGIPNKAAYNTITKLGKEKTEQLYFRALKYYLTKKSQFTDAKKALQQAAKDLYGEDASKKVAEAWEAVGVN | not soluble
8 | MKSLGNRQRFLRRAREELKRSIRDKVRAGGIAELDREHVVPIPRKGTGEPTFGDDKESGRRQHILPGNRTFSSGDLIPKPGGGGGYGSAAGTTESEDDFRFVLSREEVLDLFFEDLELPDLVKLNLKQVLSFKPRRAGFAASGAPTNINVGRTMRNSHGRRIALRRPKQAELDAIARQIAELEAKPASALVRERIAALREALDRLERRRKRIAYVDPVDIRFNRFDPQPLPNANAVMFCLMDVSGSMGEREKDLAKRFFVLLHLFLTRRYERTDIVFIRHTHLAKEVDEHTFFYHTESGGTVVSTALEEMHRIIEQRYPVAEWNIYAAQASDGDNFAGDSERCIELLDRKLMRLCQYFAYVEIIDERESHIFGATENGTSLWRAYNAVDGKWPNFQMRRIAAPADIYPVFRQLFARQPDLRKSALEHHHHHH | soluble
9 | MKSNPKYFLMNDVERQSKYSPKYVPNNSLKERILEFLDYYIAPLKLYLLSYPMPDCLWDNRKLRLKASGVQVTPSSEPVHIDDRLIHISQKQPSE | not soluble
10 | MKSRAAVAFAPGKPLEIVEIDVAPPKKGEVLIKVTHTGVCHTDAFTLSGDDPEGVFPVVLGHEGAGVVVEVGEGVTSVKPGDHVIPLYTAECGECEFCRSGKTNLCVAVRETQGKGLMPDGTTRFSYNGQPLYHYMGCSTFSEYTVVAEVSLAKINPEANHEHVCLLGCGVTTGIGAVHNTAKVQPGDSVAVFGLGAIGLAVVQGARQAKAGRIIAIDTNPKKFDLARRFGATDCINPNDYDKPIKDVLLDINKWGIDHTFECIGNVNVMRAALESAHRGWGQSVIIGVAVAGQEISTRPFQLVTGRVWKGSAFGGVKGRSQLPGMVEDAMKGDIDLEPFVTHTMSLDEINDAFDLMHEGKSIRTVIRY | soluble
11 | MKSVVLGILSSISDEVNLEMIKKYDVKLARRISGGGSVFHDMGNINYTFITSGQGGIDYLYGYLLRGTISAIENLVNDRVEVYNETDIAFKGYKISGNAGYINEDKYLLHGTLLVSSNLDI | soluble
12 | MKSYAILNQNNLFLSLEELKAIIDSDEVEYYHGVALFNKEPNNVAKRSSLIKYSGRVIAISHDVNEIVKNIKGECFSVDPTVITKEYKSEFLSIYDRIINNIKVSKKCKKMDLIFTEGLIIAGLRVEEKDNESLFKHSKKPYSQSGTLSPDIGRLMVNLSKSRKTILDPFVGTGTILIEAKWLGLNCIGLDVDSKMIEKSLVNLRYFGYECDILRGDATSLPFNNIEAIVTDPPYGRSVSVREGINNLYEGFFYSASNITRTLVFTTDSKLDWRDKLKEVGFNDISIHFIYEHKSLSRAIYVVRKK | soluble
13 | MKTIEVDDELYSYIASHTKHIGESRSDILRRMLKFSAASQKPVKTIKDKVRAMRELLLSDEYAEQKRAVNRFMLLLSTLYSLDAQAFAEATESLHGRTRVYFAADEQTLLKNGNQTKPKHVPGTPYWVITNTNTGRKCSMIEHIMQSMQFPAELIEKVCGTI | soluble
14 | MKTIIFALNDHSPKYKQIYEKLKSLIERGDIQANEPLPSIRQLAESLNVSRNTTLMAYEQLAAEGYIRAEKRKGYFANEVEPLFIPKARISARQPAREAAAPVVVDFARRCR | not soluble
15 | MKTKLDFLKMKESEEPIVMLTAYDYPAAKLAEQAGVDMILVGDSLGMVVLGLDSTVGVTVADMIHHTKAVKRGAPNTFIVTDMPFMSYHLSKEDTLKNAAAIVQESGADALKLEGGEGVFESIRALTLGGIPVVSHLGLTPQSVGVLGGYKVQGKDEQSAKKLIEDSIKCEEAGAMMLVLECVPAELTAKIAETLSIPVIGIGAGVKADGQVLVYHDIIGHGVERTPKFVKQYTRIDETIETAISGYVQDVRHRAFPEQKHSFQMNQTVLDGLYGGKLEHHHHHH | soluble
16 | MKTNYHTHTTRCMHAVGDDEDYVRSAIKGGFQELGFSDHGPWKYHTDFVSDIRMLPEDLPEYIESIRALKEKYRNQISIKIGLEYEYFPEYIHWLKEIIKEYRLDYILFGNHHYHTDEKFPYFGHHTTNRDMLDLYEESTIEGMESGLFAYLAHPDLFMRSYPEFDKHCISVSRHICRAAARLHIPLEYNIGYVAINEARGITTYPCPQFWHIAANEGCTAIIGLDAHNNLDLENPTYYDRACQELNALKMPVIDTIPFLKY | not soluble
17 | MKTPVCSEEQGPARDVIAQLLEDALQVESQEQPEQAFVKPHLVSEFDIYGFRTVPDDDEEEKLVAKVRALDLKTLYLTDNQEVSTGVKWENYFASTMNREMACSPELKNLIRAGIPHEHRSKVWKWCVDRHTRKFKDSMEPDYFQTLLQKALEKQNPASKQIELDLLRTLPNNKHYSSPTSEGIQKLRSVLLAFSWRNPDIGYCQGLNRLVAVALLYLDQEDAFWCLVTIVEVFMPRDYYTKTLLGSQVDQRVFRDLLSEKLPRLHTHFEQYKVDYTLITFNWFLVVFVDSVVSDILFKIWDSFLYEGPKVIFRFALALFKYKEEEILKLQDSMSIFKYLRYFTRTILDARKLISISFGDLNPFPLRQIRNRRAYHLEKVRLELTELEAIREDFLRERDTSPDKGELVSDEEEDT | not soluble
18 | MKTQRIIHPNIDIRKFPEVNTDFSMTDISMGDLHANALLFLNILVRQGIIAISPENYAKFAEIYTLPELQADYWGTEAPVFSAENKQERLEEIKKQYNALIAQIKIINTKKLIRLIGDELVDRGVIDYFILKLLQALYDQGADFEILLSNHGIEFVEACELFKENGNKLVAKRLGNIQHGNSFHALQEAIAAGAISNEEVLNIYHQVYKKHLKIISYSLDPDANEIKVFSHAGIGLNHIRGLARKFKVPYSEESAVDLAKTIDAINKKFAEKASSGEIHTLYTHDMMYRGYAGEHLNSTDEVVAATVWGREYGDLIRTSKKFKITFIHGHDSYDPEKVEHVTLNNQLGQFQNNVGDLYLYATNGMRAVPTQYLNPDKKIQGSREKDRPDKPNDYVVKIHHTKPSFFKTSNPKITFPDSYKRIWDSADGDSNITKIKALLKDYTKEDSILGSFWGLIFTLHWGRHHVKSVHQIAQTKYTSVEAILSDLKALKPREGGSLDKRIKFIELQIIAQRCDSPEPQFNLK | not soluble
19 | MKTRESSVGLKFRKFNRFYTNVLGFLNEHIYDSPFSLTETRILFEIYNTPNCTAKALQDKLGLDRGYVSRIVKQFEKEDLIYKQRSKDDARHHYIFVTETGKTIYKKLEEKANEQVELMLKVINQKEQHKLAEAMAEIEAILSQSLSARASEISIRDYFLSEDLQLLIEKQRQFYAEAHGWDDTFLAYLQETFDADIEKIWIAESGGKFAGSVGLVKHDEKTVQLRWFLVDADFRGRGLGTQLLEHLVAYCQDMKFDRIFLWTVSTMAEARPLYKKFGFRISEVKQEAPLWGQQLTEERWDLELS | soluble
20 | MKTRSEVFQFEKELKWEHPAPGIRRQIMGYDGQLMMVKVEFEKGAVGTLHEHYHSQATYVASGKFELTIGDRKEILSTGDGYYVAPDEPHGCVCLEAGVLIDTFSPMRADFLE | not soluble
21 | MKTVICGVQNMTTIRRLSAEDLLHFNSVNLDQLTETFNLGFYFNYLARWPDYQYVVTDSQSTTVAYIIGKAEGAGDLFHGHVSAVTVAPWFRRMGLASLLMEILENVSEKVYQGYFVDLFVRVSNHRAIEMYKKLGYIVYRRIIGYYSGEEDAFDMRKSLSKDPERKAMIPLDRPVYPSEVLLTD | soluble
